B1: Ndy1 fragment (aa 171-707): bacterially expressed mouse Ndy1 fragment containing the JmjC, CXXC and PHD domains (protein, UniProt Q6P1G2 171-707, looked up, fragment)
chain: MWPQHLKEKQTEATNALAEMKYPKVKKYCLMSVKGCFTDFHIDFGGTSVWYHVFRGGKIFWLIPPTLHNLALYEEWVLSGKQSDIFLGDRVERCQRIELKQGYTFFIPSGWIHAVYTPVDSLVFGGNILHSFNVPMQLRIYEIEDRTRVQPKFRYPFYYEMCWYVLERYVYCVTQRSYLTQEYQRELMLIDAPRKTSVDGFSSDSWLDMEEESCEQQPQEEEEEEEDKEEEGDGADKTPKPPTDDPTSPTSTPPEDQDSTGKKPKAPAIRFLKRTLSNESEESVKSTSMPTDDPKTPTGSPATEVSTKWTHLTEFELKGLKALVEKLESLPENKKCVPEGIEDPQALLEGVKNVLKEHVDDDPTLAITGVPVVSWPKKTAKNRVVGRPKGKLGPASAVKLAANRTTAGARRRRTRCRKCEACLRTECGECHFCKDMKKFGGPGRMKQSCIMRQCIAPVLPHTAVCLVCGEAGKEDTVEEEEGKFNLMLMECSICNEIIHPGCLKIKESEGVVNDELPNCWECPKCNHAGKTGKQKRG
B2: 171-707 Ndy1 fragment containing the Y221A mutation: Ndy1 fragment with Y221A mutation, which abolishes the demethylase activity (protein)
chain: MWPQHLKEKQTEATNALAEMKYPKVKKYCLMSVKGCFTDFHIDFGGTSVWAHVFRGGKIFWLIPPTLHNLALYEEWVLSGKQSDIFLGDRVERCQRIELKQGYTFFIPSGWIHAVYTPVDSLVFGGNILHSFNVPMQLRIYEIEDRTRVQPKFRYPFYYEMCWYVLERYVYCVTQRSYLTQEYQRELMLIDAPRKTSVDGFSSDSWLDMEEESCEQQPQEEEEEEEDKEEEGDGADKTPKPPTDDPTSPTSTPPEDQDSTGKKPKAPAIRFLKRTLSNESEESVKSTSMPTDDPKTPTGSPATEVSTKWTHLTEFELKGLKALVEKLESLPENKKCVPEGIEDPQALLEGVKNVLKEHVDDDPTLAITGVPVVSWPKKTAKNRVVGRPKGKLGPASAVKLAANRTTAGARRRRTRCRKCEACLRTECGECHFCKDMKKFGGPGRMKQSCIMRQCIAPVLPHTAVCLVCGEAGKEDTVEEEEGKFNLMLMECSICNEIIHPGCLKIKESEGVVNDELPNCWECPKCNHAGKTGKQKRG
modifications: left off: small tags and cut ends
B3: Ndy1: JmjC domain-containing histone H3 demethylase, overexpressed from retroviral constructs or immunoprecipitated (protein, UniProt Q6P1G2 1-1309, looked up)
Lysine-specific demethylase 2B: MEAEKDSGRRLRAIDRQRYDENEDLSDVEEIVSVRGFSLEEKLRSQLYQGDFVHAMEGKDFNYEYVQREALRVPLVFRDKDGLGIKMPDPDFTVRDVKLLVGSRRLVDVMDVNTQKGTEMSMSQFVRYYETPEAQRDKLYNVISLEFSHTKLEHLVKRPTVVDLVDWVDNMWPQHLKEKQTEATNALAEMKYPKVKKYCLMSVKGCFTDFHIDFGGTSVWYHVFRGGKIFWLIPPTLHNLALYEEWVLSGKQSDIFLGDRVERCQRIELKQGYTFFIPSGWIHAVYTPVDSLVFGGNILHSFNVPMQLRIYEIEDRTRVQPKFRYPFYYEMCWYVLERYVYCVTQRSYLTQEYQRELMLIDAPRKTSVDGFSSDSWLDMEEESCEQQPQEEEEEEEDKEEEGDGADKTPKPPTDDPTSPTSTPPEDQDSTGKKPKAPAIRFLKRTLSNESEESVKSTSMPTDDPKTPTGSPATEVSTKWTHLTEFELKGLKALVEKLESLPENKKCVPEGIEDPQALLEGVKNVLKEHVDDDPTLAITGVPVVSWPKKTAKNRVVGRPKGKLGPASAVKLAANRTTAGARRRRTRCRKCEACLRTECGECHFCKDMKKFGGPGRMKQSCIMRQCIAPVLPHTAVCLVCGEAGKEDTVEEEEGKFNLMLMECSICNEIIHPGCLKIKESEGVVNDELPNCWECPKCNHAGKTGKQKRGPGFKYASNLPGSLLKEQKMNRDNKEGQEPAKRRSECEEAPRRRSDEHPKKVPADGILRRKSDDVHLRRKRKYEKPQELSGRKRASSLQTSPGSSSHLSPRPPLGSSLSPWWRSSLTYFQQQLKPGKEDKLFRKKRRSWKNAEDRLSLANKPLRRFKQEPEDDLPEAPPKTRESDQSRSSSPTAGPSTEGAEGPEEKKKVKMRRKRRLVNKELSKELSKELNHEIQKTESTLAHESQQPIKSEPESENDEPKRPLSHCERPHRFSKGLNGTPRELRHSLGPGLRSPPRVMSRPPPSASPPKCIQMERHVIRPPPISPPPDSLPLDDGAAHVMHREVWMAVFSYLSHRDLCVCMRVCRTWNRWCCDKRLWTRIDLNRCKSITPLMLSGIIRRQPVSLDLSWTNISKKQLSWLINRLPGLRDLVLSGCSWIAVSALCSSSCPLLRTLDVQWVEGLKDAQMRDLLSPPTDNRPGQMDNRSKLRNIVELRLAGLDITDVSLRLIIRHMPLLSKLQLSYCNHINDQSINLLTAVGTTTRDSLTEVNLSDCNKVTDLCLSFFKRCGNICHIDLRYCKQVTKEGCEQFIAEMSVSVQFGQVEEKLLQKLS

What was measured:
H3K36me2 peptide = test: Fluorescence coupled demethylation assay; format: biochemical; settings: for efficiency of demethylation of H3K36me2 peptide: bacterially expressed fragment
Procedure: (§1) For assay of in vitro histone demethylation, cells from a confluent 15 cm dish were harvested and the cell pellet was resuspended in 5 packed cell volumes of Buffer A (10 mM HEPES pH 7.9, 1.5 mM MgCl2, 10 mM KCl, 0.5 mM DTT, and 0.2 mM PMSF) and centrifuged at 1500 rpm for 5 minutes. Buffer A was added up to a final of 3 original packed cell volumes and the suspension was incubated on ice for 10 minutes. Cells were transferred to a Wheaton A Dounce homogenizer and lysed with 10 strokes. Nuclei were pelleted by centrifuging at maximum speed for 5 min in a microcentrifuge. Nuclei were resuspended in Buffer B (20 mM HEPES, pH 7.9, 100 mM KCl, 0.5 mM DTT and 0.2 mM PMSF) and disrupted by sonication. After preclearing with 20 μl protein A-agarose beads, the supernatant was incubated with either myc- or hemagglutinin-specific monoclonal antibody (5 μg/sample) and 20 μl protein A-agarose beads overnight at 4° C., the sample was washed three times with 1 ml Buffer B and the purified immune complex was incubated overnight at 4° C. with myc or HA peptide to release Ndy1/KDM2B from the beads. Demethylation reactions were carried out in 10 mM HEPES pH 7.9, 50 mM NaCl, 1 mM α-ketoglutarate, 2 mM ascorbate, 30-70 μM Fe(NH4)2(SO4)2, 0.25 mg/ml BSA and contained 6 μg of bulk histone per 90 μl reaction. Reactions were incubated at 37° C. for 1-3 hours and analyzed by 18% SDS-PAGE and Western-blotting with histone specific antibodies.
(§2) Fluorescent assays were carried out as previously described (Couture, J. F., et al. (2007) Nat Struct Mol Biol 14, 689-95) under the reaction conditions above. One unit of enzyme activity is determined as amount of Ndy1 that produces 1 μmol of formaldehyde per min, incubated with 340 μM peptide substrate at 37° C. under the above conditions. The sequences of the H3K4(me3) and H3K36(me2) peptides used in the biochemical studies were: ART-K(me3)-QTARKST (SEQ ID NO: 79) and ATGGV-K(me2)-KPHRY (SEQ ID NO: 80) respectively and were synthesized at Tufts University Core facility.
(§3) Using a fluorescence coupled demethylation assay, a bacterially expressed mouse Ndy1 fragment containing the JmjC, CXXC and PHD domains (aa 171-707) was here shown to demethylate both H3K36me2 and H3K4me3 peptides, with high and low efficiencies respectively (FIG. 20 panel B and FIG. 22). Cloning and bacterial expression of Ndy1 fragments was accomplished using fragments 1-701 and 171-701 of mouse Ndy1, which were amplified using specific primers and were cloned directly into pET102/DTOPO vector (Invitrogen) using of the TOPO-cloning methodology. The C-terminally His-tagged fusion proteins were purified from BL21(DE3) cells using Ni2+agarose beads (QIAGEN) and according to the manufacturer instructions. Flow cytometry analysis of histone modifications was determined in HEK293 cells transfected with either pIRES-GFP-empty vector (Stratagene) or the same vector containing the wild type or the H283Y JmjC domain point mutant of Ndy1. After 48 hours, cells were harvested and fixed in 1% paraformaldehyde for 10 min. Cells were washed twice with PBS, and were permeabilized with 0.5% saponin in PBS for 20 min and were blocked with 3% bovine serum albumin (BSA). […] (Alexa Fluor 635, Invitrogen, #A31577) followed by fluorescence-activated cell sorting using a CyAn high performance flow cytometer (Dako Cytomation).

H3K4me3 peptide = test: Fluorescence coupled demethylation assay; format: biochemical; settings: bacterially expressed fragment
Procedure: as §1, §2, §3

MEFs = test: Ndy1 overexpression in serially passaged MEFs, real time PCR of p16Ink4a and p19Arf mRNA; format: cell-based, mouse
Procedure: FIG. 14 panel B is a set of bar graphs of MEFs overexpressing Ndy1 that were plated at a concentration of 10^5 cells per 6 cm dish and serially passaged. In passage P5, P10, and P15 total mRNA was isolated and analyzed by real time PCR for the relative mRNA levels of p16^Ink4a and p19^Arf. The graphs show the fold decrease of p16^Ink4a and p19^Arf mRNAs in MEFs that overexpress Ndy1 normalized to control empty-vector transduced cells from 3 independent infections.
RNA was isolated with the RNeasy mini kit (Qiagen #74104). cDNAs of these mRNAs were synthesized with RETROscript (Ambion #AM1710). PCR reactions were carried out in triplicate with iQ SYBRGreen Supermix (Bio-Rad #170-8882) in an Opticon2 continuous fluorescence detector (MJ Research). The following set of primers have been used to amplify the mouse: Ezh2: F-5′-ACTGCTGG CACCGTCTGATG-′3 (SEQ ID NO: 38) and R-5′-TCCTGAGAA ATAATCTCCCCACAG-′3 (SEQ ID NO: 39),
p16^Ink4a: F-5′-GTGTGCATGA CGTGCGGG-′3 (SEQ ID NO: 42) and R-5′-GCAGTTCGA ATCTGCACCGTAG-′3 (SEQ ID NO: 43), p19^Arf: F-5′GCTCTGGCT TTCGTGAACATG-′3 (SEQ ID NO: 44) and R-5′-TCGAATCTG CACCGTAG′TTGAG'3 (SEQ ID NO: 45),
Replicative senescence is characterized by the dramatic upregulation of p16^Ink4a (>100-fold, FIG. 16) and p19^Arf (>10-fold). Since, p16^Ink4a inhibits the cyclin D/CDK4-6 complex that mediates the phosphorylation of Rb at Ser807/811, and Ndy1 promotes the phosphorylation of Rb at this site as shown in Examples herein, whether the phosphorylation of Rb in Ndy1-transduced MEFs can be linked to a defect in the induction of the Ink4a/Arf locus was tested. To address this question, the relative levels of p16^Ink4a and p19^Arf mRNA in passaged MEFs stably expressing Ndy1 were determined in examples herein.

HEK293 cells = test: Flow cytometry of global histone modifications in HEK293 cells transfected with Ndy1; format: cell-based, human; settings: HEK293 cells transiently transfected with Ndy1
Source text: as §3, with “Ndy1.” for “Ndy1. After 48 hours, cells were harvested and fixed in 1% paraformaldehyde for 10 min. Cells were washed twice with PBS, and were permeabilized with 0.5% saponin in PBS for 20 min and were blocked with 3% bovine serum albumin (BSA).”
To confirm the activity and specificity of the Ndy1 histone demethylase in vivo, flow cytometry was used to quantitatively assess the global levels of histone H3K36me2 and H3K4me3 in HEK293 cells transiently transfected with Ndy1.

bulk histone = test: In vitro histone demethylation assay with immunoprecipitated native Ndy1 (Western blot); format: biochemical; settings: mouse and human Ndy1 immunoprecipitated from MEFs and IMR90 cells

Molecule	efficiency of demethylation of H3K36me2 peptide (H3K36me2 peptide)	efficiency of demethylation of H3K4me3 peptide (H3K4me3 peptide)	attenuation of induction of p16Ink4a (MEFs; passage 5, relative to empty vector transduced MEFs)	reduction of induction of p19Arf (MEFs; passage 10)	attenuation of induction of p16Ink4a (MEFs; passage 10, relative to empty vector transduced MEFs) [%]	reduction of induction of p19Arf (MEFs; passage 15) [%]	attenuation of induction of p16Ink4a (MEFs; passage 15, relative to empty vector transduced MEFs) [%]	specific activity towards the H3K36me2 versus the H3K4me3 peptide (H3K36me2 peptide; Ndy1 fragments expressed in E. coli)	histone H3K4me3 demethylase activity in vivo (HEK293 cells)	histone H3K36me2 demethylase activity in vivo (HEK293 cells)	H3K4me3 demethylase activity (bulk histone)	H3K36me2 demethylase activity (bulk histone)
B1	high	low										
B2	failed to demethylate	failed to demethylate										
B3			about 55%	about 43%	~62	~34	~90	three times higher	weak	strong	weak	strong
